The source of these data is the nanobody polyreactivity screen of Harvey et al. (2022).

A short description of this data set: yeast display, Sf9 membrane polyspecificity reagent, FACS + sequencing; frameworks hold sequencing errors. The procedure, abridged: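 Genes from sorted yeast were amplified by colony PCR, read by MiSeq 2 × 250 sequencing and filtered on CDR length. These cells carried a synthetic nanobody library in Saccharomyces cerevisiae BJ5465 and were sorted by FACS into low and high (top ~1%) gates on anti-HA and streptavidin fluorescence. Polyreactivity is labelled according to the gate of origin.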
As for “QVQLVESGGGLVQAGGSLRLSCAASGYIFERYAMGWYRPAPGKERELVAAISSGGGRTYYADSVKGRFTISRDNAKNPVYLQMNSLQPEDTAVYYCAADHWWISSYWGQGTQVTVSS”, the “polyreactivity (PSR sort gate)” value is listed as “high polyreactivity”.

On to “QVQLVESGGGLVQAGGSLRLSCAASGYIFEVNTMGWYIQAPGKERELVAAITSGGTTYYADSVKGRFTISRDNAKNTVYLQMNSLKPDDTAVYYCAALWSRRRSRPRFDYWGQGTQVTVSS”, for which the “polyreactivity (PSR sort gate)” value was “high polyreactivity”.

Consider “QVQLVESGGGLVQAGGSLRLSCAASGYIFEYYAMGWYRQAPGKERELVAAISWSGGSTYYADSVKGRFTISRDNAKNTVYFQLNSLKPVDTAVYYCAAEYVTYQQGLWGYDYWGQGTQVTVSS”, for which the “polyreactivity (PSR sort gate)” value is on record as “low polyreactivity”.

With “QVQLVESGGGLVQAGGSLRLSCAASGYIFGFYAMGWYRQAPGKERELVSRITYSGTSTYYADSVKGRFTISRDNAKNTVYLQMNSLKPEDTAVYYCATDFVRHAGWRRYDYWGQGTQVTVSS”, the “polyreactivity (PSR sort gate)” value was “low polyreactivity”.

In the case of “QVQLVESGGGLVQAGGSLRLSCAASGYIFGGNAMGSYRPAPGNPRELVAAISSSSGGTYYADSVKGRFTISRDNAKNTVYLQMNSLKPEDTAVYYCAAAPVDYEYDYWGQGTQVTVSS”, the “polyreactivity (PSR sort gate)” value is “low polyreactivity”.

“QVQLVESGGGLVQAGGSLRLSCAASGYIFGRNARGWYRQAQGKERELVAVISSRGSRTYYADSVKGRYTISRDNAKNTVYLQMNSLKPEDTAVYYCNAVMWWDWEYDFYYWGQGNQVTVSS”: the “polyreactivity (PSR sort gate)” value is listed as “high polyreactivity”.

With “QVQLVESGGGLVQAGGSLRLSCAASGYIFGVYAMGWYRQAPGKERELVARITSGGSTNYADSVKGRFTISRDNAKNTVYLQMNSLKPEDTAVYYCAAAVGNTDREYDYWGQGTQVTVSS”, the “polyreactivity (PSR sort gate)” value is on record as “low polyreactivity”.

In the case of “QVQLVESGGGLVQAGGSLRLSCAASGYIFGWYTMGWYRQAPGKEREFVASISNSDASTYYADSVKGRFTISRDNAKNTVYLQMNSLKPEDTAVYYCAADTTYWHWIYYYWGQGTQVTVSS”, the “polyreactivity (PSR sort gate)” value is reported as “low polyreactivity”.

Take “QVQLVESGGGLVQAGGSLRLSCAASGYIFGYNTMGWYRQAPGKERELVAAISKSGGRTYYADSVKGRFTISRDNAKNTVYLQMNSLKPEDTAVYYCAADGWSGKLRYTRYDYWGQGTQVTVSS”: the “polyreactivity (PSR sort gate)” value was “high polyreactivity”.

Turning to “QVQLVESGGGLVQAGGSLRLSCAASGYIFHLYGMGWYRQAPGKERELVARISYRGGSTYYADSVKGRFTISRDNAMKTVYLQRNSLKPEETAVYYCAAYRRQHIIYNYWGQGTQVSVSS”, the “polyreactivity (PSR sort gate)” value was “high polyreactivity”.

For the sequence “QVQLVESGGGLVQAGGSLRLSCAASGYIFHNYAMGWYIQAPGKERELVAAITRSAGRTYYADSVKGRFTISRDNAKNTVYLQMNSLKPEDTAVYYCNARYGGRFYYCGQGTQVTVSS”, the “polyreactivity (PSR sort gate)” value is given as “high polyreactivity”.

“QVQLVESGGGLVQAGGSLRLSCAASGYIFISYAMGWYRQAPGKEREFVAAITGDGGSTYADSVKGRFSISRDNAKNTVYLQMNSLKPEDTAVYYCAVDGYGGEADYEYDHCGQGTQVTVSS”: the “polyreactivity (PSR sort gate)” value is recorded as “low polyreactivity”.

Turning to “QVQLVESGGGLVQAGGSLRLSCAASGYIFITYAMGWYRQAPGKERELVAAISRRGGRTYYADSVKGRFTISRDNAKNTVYLQMNSLKPEDTAVYYCAADPATSVYGGLNYWGQGTQVTVSS”, the “polyreactivity (PSR sort gate)” value is “high polyreactivity”.

For the sequence “QVQLVESGGGLVQAGGSLRLSCAASGYIFKVNSMGWYRPAPGKERELDADISSNSGSTRYADSVKARFTISRDNAKNTVYLQMNSLKQDDTAVYYCAADGRYWVKPGSPWDRSRYDYWGQGTQVTVSS”, the “polyreactivity (PSR sort gate)” value is given as “low polyreactivity”.

Regarding “QVQLVESGGGLVQAGGSLRLSCAASGYIFLGYAMGWYRQAPGKERELVAAISSRGGSTYYADSVKGRFTISRDNAKNTVYLQMNSLKPEDTAVYYCAAYRFSDRAAYGYYDRHYYWGQGTQVTVSS”, the “polyreactivity (PSR sort gate)” value is reported as “high polyreactivity”.

Consider “QVQLVESGGGLVQAGGSLRLSCAASGYIFLPNTMGWYRQAPGKERELVAVISKSGTSTYYADSVKGRFTISRDNAKNTVYLQMNSLKPEDTAVYYCNRVYRLTAYGYDYWGQGTQVTLSS”, for which the “polyreactivity (PSR sort gate)” value was “high polyreactivity”.

Take “QVQLVESGGGLVQAGGSLRLSCAASGYIFNRYVMGWYRQAPGKERELVAAITWRGGTTYADSVKGRFTISRDNAKNTVYLLMNSLKPEDTAVYYCAARRYPFEYDYWGQGTQVTVSS”: the “polyreactivity (PSR sort gate)” value is given as “high polyreactivity”.

As for “QVQLVESGGGLVQAGGSLRLSCAASGYIFNSNTMGWYRPAPGKERELVAAITSSGGRTNYADSVKGRFTISRDNAKNTVYLQMNSLKPEDTAVYYCATRVYYRAGRYKYDYWGQGTQVTVSS”, the “polyreactivity (PSR sort gate)” value was “high polyreactivity”.

“QVQLVESGGGLVQAGGSLRLSCAASGYIFPAYAMGWYRQAPGKERELVAAISWSTGSTYYADSVKGRFTISRDNAKNTVYLQMNSLKPEDTAVYYCAAGRPRRVPDHWYIYYYWGQGTQVTVSS”: the “polyreactivity (PSR sort gate)” value is recorded as “low polyreactivity”.

With “QVQLVESGGGLVQAGGSLRLSCAASGYIFPTYAMGWYRQEPGKERELVAAISISGGDTYYADSVKGRFTISRDNAKNTVYLQMNSLKPEDTAVYYCAAVKYETYRYNYDYWGQGTQVTVSS”, the “polyreactivity (PSR sort gate)” value was “high polyreactivity”.

Consider “QVQLVESGGGLVQAGGSLRLSCAASGYIFPWYDMGWYRQAPGKERELVAAISWSGGSTYSADSVKGRFTISRDNAKNTVDLQMNSLKPEDTAVYYCAAYLSHYATRYGYWGHGTQVTVSS”, for which the “polyreactivity (PSR sort gate)” value was “high polyreactivity”.

For “QVQLVESGGGLVQAGGSLRLSCAASGYIFPYNAMGWYRQAPGKERELVAAISASGGTTYYADSVKGRFTISRDNAKNTVYLQMNSLKPEDTAVYYCAASFAVTSGHHYEYWGQGTQVTVSS”, the “polyreactivity (PSR sort gate)” value is listed as “high polyreactivity”.

As to “QVQLVESGGGLVQAGGSLRLSCAASGYIFPYYTMGWYRQAPGKERELVAAITIGGSTYYADSVKGRFTISRDNAKNTVYLKMNSLKPEDTAVYYCAAKYYDYLYRYIMEYWGQGTQVTVSS”, the “polyreactivity (PSR sort gate)” value is recorded as “low polyreactivity”.

With “QVQLVESGGGLVQAGGSLRLSCAASGYIFQPYAMGWYRQAPGKERELVAAISWRGGTTYYADSVKGRFTISRDNAKITVYLQMNSLKPEDTAVYDCAKDYYYGLDHYGYWGQGTQVTVSS”, the “polyreactivity (PSR sort gate)” value is given as “low polyreactivity”.

In the case of “QVQLVESGGGLVQAGGSLRLSCAASGYIFRLYAMGWYRQAPGKERELVATITASGGTYYADSVKGRFTISRDNAKNTVYLQMNSLKPEDTAVYYCAAAKLRRLSRVRYGYWGQGTQVTVSS”, the “polyreactivity (PSR sort gate)” value is given as “high polyreactivity”.

With “QVQLVESGGGLVQAGGSLRLSCAASGYIFRQNAMGWYRQAPGKERELVAAITWSGGSTYYADSVKGRFTISRDNAKNTVYLQMNSLKPEDTAVYYCNAYSYVAIRDGGDYWGQGTQVTVSS”, the “polyreactivity (PSR sort gate)” value is “low polyreactivity”.

As for “QVQLVESGGGLVQAGGSLRLSCAASGYIFRRYAMGWYRQAPGKERELVAAISKSGVSTYYADSVKGRFTISRDNAKNTVYLQMNSLKPEDTAVYYCAASSYTWGEDYWGQGTQVTVSS”, the “polyreactivity (PSR sort gate)” value is “high polyreactivity”.

As to “QVQLVESGGGLVQAGGSLRLSCAASGYIFRSYAMGWYRQAPGKERELVAAITRSGGSTYYADSVKGRFTISRDNAKNTVYLQMNSLKPEDTAVYYCAVLPRGSNGMDYWGQGTQVTVSS”, the “polyreactivity (PSR sort gate)” value is “low polyreactivity”.

For the sequence “QVQLVESGGGLVQAGGSLRLSCAASGYIFRYNAMGWYRQAPGKERELVAAIRATGGSTYYADSVKGRFTISRDNAKNTVSLQMNSLKPEDTAVYYCNAGGQGRTYRYYYWGQGTQVTVSS”, the “polyreactivity (PSR sort gate)” value was “high polyreactivity”.

As for “QVQLVESGGGLVQAGGSLRLSCAASGYIFRYYAMGWYRQAPGKERELVAAISWNGGRTYYADSVKGRFTISRDNAKNTVYLQMNSLKPEDTAVYYCAARYWGDYFTEMNYWGQGTQVTVSS”, the “polyreactivity (PSR sort gate)” value is “high polyreactivity”.

“QVQLVESGGGLVQAGGSLRLSCAASGYIFRYYAMGWYRQAPGKERELVAAISWNGGRTYYADSVKGRFTISRDNAKNTVYLQMNSLKPEDTAVYYCNTYWDGAREYDYWGQGTQVTVSS”: the “polyreactivity (PSR sort gate)” value is “high polyreactivity”.

With “QVQLVESGGGLVQAGGSLRLSCAASGYIFSGYAMGWYRQAPGKERELVAAISSSGGRTYYADSVKGRFTISRDNAKNTVYLQMNSLKPEDTAVYYCAADAVYYHFDYWGQGTQVTVSS”, the “polyreactivity (PSR sort gate)” value was “high polyreactivity”.

For “QVQLVESGGGLVQAGGSLRLSCAASGYIFSGYAMGWYRQAPGKERELVAAISSSGGRTYYADSVKGRFTISRDNAKNTVYLQMNSLKPEDTAVYYCAARIRTVAHVDYDYWGQGTQVTVSS”, the “polyreactivity (PSR sort gate)” value is recorded as “high polyreactivity”.

Turning to “QVQLVESGGGLVQAGGSLRLSCAASGYIFSVYAMGWYRQAPGKERELVAAISSGGSTYYADSVKGRFTISRDNAKNTVYLQMNSLKPEDTAVYYCAAESEYVYWYYVDYDYWGQGTQVTVSS”, the “polyreactivity (PSR sort gate)” value is given as “high polyreactivity”.

Turning to “QVQLVESGGGLVQAGGSLRLSCAASGYIFSYNAMGWYRQAPGKERELVAAITASGGGTYYADSVKGRFTISRDNAKNTVYLQMNSLKPEDTAVYYCAADFNDHYYWYGQDYDYWGQGTQVTVSS”, the “polyreactivity (PSR sort gate)” value is listed as “low polyreactivity”.

As to “QVQLVESGGGLVQAGGSLRLSCAASGYIFTYYAMGWYRQAPGKERELVAAISGSDGNTYYADSVKGRFTISRDNAKKTDYLEMISLKPEDTAVYYCAKSGGLTFRSQRYDYWGQGTQVNVSS”, the “polyreactivity (PSR sort gate)” value is “low polyreactivity”.

Consider “QVQLVESGGGLVQAGGSLRLSCAASGYIFVPYAMGWSRQAPGKERELVAAISRGGNTNYADSVKGRFTISRDNAKNTVYLQMNSLKPEDTAVYYCNADLVQYWGRRRWYDYWGQGTQVTVSS”, for which the “polyreactivity (PSR sort gate)” value is on record as “low polyreactivity”.

Take “QVQLVESGGGLVQAGGSLRLSCAASGYIFVRNAMGWYRQAPGKERELVAAISRTDGTTYYADSVKGRFTISRDNAKNTVYLQMNSLKPEDTAVYYCAADYLRAPYYQYEYWGQGTQVTVSS”: the “polyreactivity (PSR sort gate)” value is “low polyreactivity”.

In the case of “QVQLVESGGGLVQAGGSLRLSCAASGYIFVYNAMGWYRQAPGKERELVAAITDGGGSTYADSVKGRFTISRDNAKNTVYLQMNSLKPEDTAVYYCAARYSDTTWYVLYYYWGQGTQVTVSS”, the “polyreactivity (PSR sort gate)” value is “low polyreactivity”.

With “QVQLVESGGGLVQAGGSLRLSCAASGYIFWSYAMGWYRQAPGKERELVAAISAYGCRTYYADSVKGRFTISRDNAKTTVYLQMNSLKPEDTAVYYCNADTGNHAYWYYGEFYYYTYDYWGQGTQVTVSS”, the “polyreactivity (PSR sort gate)” value was “low polyreactivity”.
